Key:
[1] = biological target: T1, gp10-7 complex (bacteriophage T4) (bacteriophage T4, UniProt P10928 1-602; P19061 1-1032); experiment: on-chip assemblograms in 1D compartments, post-staining
T1 construct: also called gp10-7 complexes

[2] = biological target: T2, pre-wedge, gp10-7-8 complex (bacteriophage T4) (bacteriophage T4, UniProt P10928 1-602; P19061 1-1032; P19062 1-334); experiment: on-chip gene titration, yield calculated from post-staining
T2 construct: also called pre-wedges

[3] = biological target: T3, gp7, bacteriophage T4 gene product 7 (bacteriophage T4, UniProt P19061 1-1032); experiment: on-chip assemblograms in 1D compartments on gp11-HA, post-staining with gp8
T3 construct: Expressed cell-free; also called gene-7 product
T3 sequence: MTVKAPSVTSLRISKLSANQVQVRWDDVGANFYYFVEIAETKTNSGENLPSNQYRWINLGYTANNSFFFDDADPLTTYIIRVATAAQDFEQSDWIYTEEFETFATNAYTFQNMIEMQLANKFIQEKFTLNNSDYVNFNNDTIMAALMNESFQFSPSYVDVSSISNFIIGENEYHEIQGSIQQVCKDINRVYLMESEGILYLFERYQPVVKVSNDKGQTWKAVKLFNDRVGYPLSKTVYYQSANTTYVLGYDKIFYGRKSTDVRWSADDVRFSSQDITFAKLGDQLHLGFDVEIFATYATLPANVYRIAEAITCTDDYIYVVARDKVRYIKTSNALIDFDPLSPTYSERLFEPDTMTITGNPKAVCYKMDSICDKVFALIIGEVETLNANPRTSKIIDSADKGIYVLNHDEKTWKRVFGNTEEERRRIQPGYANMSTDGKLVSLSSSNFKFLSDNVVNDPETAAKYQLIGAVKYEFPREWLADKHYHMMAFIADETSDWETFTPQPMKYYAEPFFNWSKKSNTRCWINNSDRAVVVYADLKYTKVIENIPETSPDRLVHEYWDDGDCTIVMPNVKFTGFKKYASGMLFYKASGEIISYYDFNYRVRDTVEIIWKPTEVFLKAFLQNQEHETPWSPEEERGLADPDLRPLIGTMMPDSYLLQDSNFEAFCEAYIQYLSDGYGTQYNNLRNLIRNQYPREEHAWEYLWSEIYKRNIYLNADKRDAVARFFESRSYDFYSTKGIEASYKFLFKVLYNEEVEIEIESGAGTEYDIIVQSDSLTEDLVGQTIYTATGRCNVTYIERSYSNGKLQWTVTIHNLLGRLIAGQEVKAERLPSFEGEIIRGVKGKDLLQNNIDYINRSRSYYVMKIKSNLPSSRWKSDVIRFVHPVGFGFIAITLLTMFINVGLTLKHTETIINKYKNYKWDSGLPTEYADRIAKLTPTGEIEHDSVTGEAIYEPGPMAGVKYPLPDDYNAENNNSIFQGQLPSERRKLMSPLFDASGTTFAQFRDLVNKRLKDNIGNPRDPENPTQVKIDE

B1: gp8, bacteriophage T4 gene product 8 (other)
chain: MNDSSVIYRAIVTSKFRTEKMLNFYNSIGSGPDKNTIFITFGRSEPWSSNENEVGFAPPYPTDSVLGVTDMWTHMMGTVKVLPSMLDAVIPRRDWGDTRYPDPYTFRINDIVVCNSAPYNATESGAGWLVYRCLDVPDTGMCSIASLTDKDECLKLGGKWTPSARSMTPPEGRGDAEGTIEPGDGYVWEYLFEIPPDVSINRCTNEYIVVPWPEELKEDPTRWGYEDNLTWQQDDFGLIYRVKANTIRFKAYLDSVYFPEAALPGNKGFRQISIITNPLEAKAHPNDPNVKAEKDYYDPEDLMRHSGEMIYMENRPPIIMAMDQTEEINILFTF
notes: Expressed cell-free; also called gene-8 product
binding result [1]: binds

B2: gp6, bacteriophage T4 gene product 6 (other)
chain: MANTPVNYQLTRTANAIPEIFVGGTFAEIKQNLIEWLNGQNEFLDYDFEGSRLNVLCDLLAYNTLYIQQFGNAAVYESFMRTANLRSSVVQAAQDNGYLPTSKSAAQTEIMLTCTDALNRNYITIPRGTRFLAYAKDTSVNPYNFVSREDVIAIRDKNNQYFPRLKLAQGRIVRTEIIYDKLTPIIIYDKNIDRNQVKLYVDGAEWINWTRKSMVHAGSTSTIYYMRETIDGNTEFYFGEGEISVNASEGALTANYIGGLKPTQNSTIVIEYISTNGADANGAVGFSYADTLTNITVININENPNDDPDFVGADGGGDPEDIERIRELGTIKRETQQRCVTATDYDTFVSERFGSIIQAVQTFTDSTKPGYAFIAAKPKSGLYLTTVQREDIKNYLKDYNLAPITPSIISPNYLFIKTNLKVTYALNKLQESEQWLEGQIIDKIDRYYTEDVEIFNSSFAKSKMLTYVDDADHSVIGSSATIQMVREVQNFYKTPEAGIKYNNQIKDRSMESNTFSFNSGRKVVNPDTGLEEDVLYDVRIVSTDRDSKGIGKVIIGPFASGDVTENENIQPYTGNDFNKLANSDGRDKYYVIGEINYPADVIYWNIAKINLTSEKFEVQTIELYSDPTDDVIFTRDGSLIVFENDLRPQYLTIDLEPISQ
notes: Expressed cell-free; also called gene-6 product
binding result [2]: binds

B3: gp10, bacteriophage T4 gene product 10 (other)
chain: MKQNINIGNVVDDGTGDYLRKGGIKINENFDELYYELGDGDVPYSAGAWKTYNASSGQTLTAEWGKSYAINTSSGRVTINLPKGTVNDYNKVIRARDVFATWNVNPVTLVAASGDTIKGSAVPVEINVRFSDLELVYCAPGRWEYVKNKQIDKITSSDISNVARKEFLVEVQGQTDFLDVFRGTSYNVNNIRVKHRGNELYYGDVFSENSDFGSPGENEGELVPLDGFNIRLRQPCNIGDTVQIETFMDGVSQWRSSYTRRQIRLLDSKLTSKTSLEGSIYVTDLSTMKSIPFSAFGLIPGEPINPNSLEVRFNGILQELAGTVGMPLFHCVGADSDDEVECSVLGGTWEQSHTDYSVETDENGIPEILHFDSVFEHGDIINITWFNNDLGTLLTKDEIIDETDNLYVSQGPGVDISGDVNLTDFDKIGWPNVEAVQSYQRAFNAVSNIFDTIYPIGTIYENAVNPNNPVTYMGFGSWKLFGQGKVLVGWNEDISDPNFALNNNDLDSGGNPSHTAGGTGGSTSVTLENANLPATETDEEVLIVDENGSVIVGGCQYDPDESGPIYTKYREAKASTNSTHTPPTSITNIQPYITVYRWIRIA
notes: also called gene-10 product
binding result [3]: binds

From US20220213467A1 (YEDA RESEARCH AND DEVELOPMENT, published 2022)
